Measured values as given in US20230074277A1 (BUEHLMANN LABORATORIES, published 2023).

Target: the molecule itself
Assay: size exclusion chromatography, buffer A + 2 mM CaCl2
Text: FIG. 9: Site-directed mutagenesis of the SEQ-ID NO:3 fusion protein and its consequences. A previously described mutation (EP3248015 A1) that impairs heterotetramerization of S100A8/S100A9, namely E78A in the S100A9 polypeptide chain, was introduced into the fusion protein. This E78A mutant remains monomeric, even in the presence of CaCl₂.
Site directed mutagenesis was used to introduce the mutation E78A in the S100A9 chain (see EP3248015 A1) of the fusion protein (SEQ ID NO:3). In endogenous calprotectin, this mutation abrogates […] (Leukert N et al. Calcium-dependent tetramer formation of S100A8 and S100A9 is essential for biological activity (2006). J. Mol. Biol. 359: 961-972). Similary, introduction of this mutation into the fusion protein (SEQ-ID NO:3) prevented CaCl₂) dependent dimerization. The S200 size exclusion chromatography of the mutated and non-mutated fusion proteins (SEQ ID NO:3) in buffer A containing 2 mM CaCl₂) was performed as described in Examples 1 and 3 (FIG. 9).

B1: recombinant fusion polypeptide (SEQ ID NO:3) (other)
chain: MHHHHHHLEVLFQGPMTCKMSQLERNIETIINTFHQYSVKLGHPDTLNQGEFKELVRKDLQNFLKKENKNEKVIEHIMEDLDTNADKQLSFEEFIMLMARLTWASHEKMHEGDEGPGHHHKPGLGEGTPLEVLFQGPMLTELEKALNSIIDVYHKYSLIKGNFHAVYRDDLKKLLETECPQYIRKKGADVWFKELDINTDGAVNFQEFLILVIKMGVAAHKKSHEESHKE
notes: Single polypeptide, monomer 26.8 kDa, equal to an S100A8/S100A9 heterodimer; It dimerizes in 2 mM CaCl2, equal to the heterotetramer; also called rCAL (Mrp14-Mrp8 fusion)
B1: binds.
